# In the DeepSol protein solubility set:
# Experiment: soluble on expression in E. coli; label from the status in PepcDB or PDB records
row,Sequence,soluble on expression in E. coli
1,MKVTPINDYKDIHQDKETVLVLGYFDALHRGHKVLFDKARQIADEKQLEVAVFTFNESPQLTFQRYTDDLLLHITAPQRRCDLFKAYGTDQLYLTDFNSDFARTSSDDFITRYINRLKAQEIVVGFDYKFGHHRTDTDYLDRNFSGTVHVIEEQQSGGEKISSTRVRQLIREGNVKEANNLLGHEFSTRGIVVHGDARGRTIGFPTANLAPIDRTILPADGVYVADVVIDGKRYRSMTSLGKNVTFGGTELRLEANIFDFEGDIYGKTIEVFWLDYIRDMIKFNNIDELCDQLKADKKIAEKL,not soluble
2,MKVTVIGCYGGFPAANEATSGYLFQSGDYSLLVDCGSAVLSKLFGYVPAEKLDAVVLSHYHHDHIADIGPLQFAKQVGSFLGKGEHTLPIYGHDADIEQFQKLTYKTHTKGIAYQPDQPLTAGPFTITFLKTIHPVTCYAMRITDGSHTVVYTADSSYQDSFIPFSKDADLLISECNFYADQDGTSAGHMNSLEAGRIAKEAGAGELLLTHLPHFGVHDNLRKEAKTVFNGEVNIAKSGFVWEG,soluble
3,MKVVAAYLLAKLSGNENPSVADLKKIVESVGAEIDQEKIDLFFSLIKDRDVTELIAVGREKMAALSSGGGAVAVASGGGGGAAPAAEPASVESKKKEEEKEESEDDGGMMSLFD,soluble
4,MKWEMGLQEEYIELIKAGKKKIEGRLYDEKRRQIKPGDIIIFEGGKLKVKVKGIRVYSSFKEMLEKEGIENVLPGVKSIEEGVKVYRQFYDEEREKKYGVVAIEIEPIE,soluble
5,MKWPWWPVCVPLSKRLTLPLPSTANPVVQPSRLALACANRLFEAADNRERFLQALMTPPAYPATVLWCGEPAAALPFAALPPLPWQPPWVSRFVAGSPTGQHPLHAAGAYYCLDSSSVFAAVPLLTLPQEPSLVIDVCAAPGGKSLFAWRSLHPRYLICNETIGKRVGKLIGNLKRCRVHPVGVTSWDSEVLAAEFQGTADVVIVDAPCSGQSLLAKGQKAEGCFHPLTIRHNQRRQKRILAAATTLVRPGGWLLYSTCTFSQDENEDVAAWLMAKFPHLLPQPVPALAAYQSHLAAFPCYRLWPHQGEGAGAFTILWQHQGLEHHHHHH,soluble
6,MKYQLTALEARVIGCLLEKQVTTPEQYPLSVNGVVTACNQKTNREPVMNLSESEVQEQLDNLVKRHYLRTVSGFGNRVTKYEQRFCNSEFGDLKLSAAEVALITTLLLRGAQTPGELRSRAARMYEFSDMAEVESTLEQLANREDGPFVVRLAREPGKRENRYMHLFSGEVEDQPAVTDMSNAVDGDLQARVEALEIEVAELKQRLDSLLAHLGD,soluble
7,MLACSFKAVNGGFRHLLIRMIIDPPHHLFDTALARQIAIHILHYQFEVTRPRLVAMQEHERTAVARSLRTINRRLEEPVFAKAYRRWAGRDGTVSRDCFKFDCCA,not soluble
8,MLAIFHEAFAHPPEELNSPASEKCSKQPKLPEETLNDFLLRYPLNTFSMSFGQAAVLAYVRPSASFSIHQRLFCGFDDIYCLFFGSLNNLCQLNKQYGLTKTTNEAMFVIEAYRTLRDRGPYPADQVVKDLDGSFSFVVYDSKAGSVFTALVLIHKISPRLLELNFNGSDGGVKLYWGIAADGSVVISDDLDVIKEGCAKSFAPFPTGCMFHSEGGLMSFEHPMNKIKAMPRVDSEGVLCGANFKVDVYNRVNSIPRRGSEANWSL,soluble
9,MLAQLTISNFAIVRELEIDFHSGMTVITGETGAGKSIAIDALGLCLGGRAEADMVRTGAARADLCARFSLKDTPAALRWLEENQLEDGHECLLRRVISSDGRSRGFINGTAVPLSQLRELGQLLIQIHGQHAHQLLTKPEHQKFLLDGYANETSLLQEMTARYQLWHQSCRDLAHHQQLSQERAARAELLQYQLKELNEFNPQPGEFEQIDEEYKRLANSGQLLTTSQNALALMADGEDANLQSQLYTAKQLVSELIGMDSKLSGVLDMLEEATIQIVEASDELRHYCDRLDLDPNRLFELEQRISKQISLARKHHVSPETLPQYYQSLLEEQQQLDDQADSQETLALAVTKHHQQALETARALHQQRQHYAEELAQLITDSMHALSMPHGQFTIDVKFDEHHLGADGADRIEFRVTTNPGQPMQPIAKVASGGELSRIALAIQVITARKMETPALIFDEVDVGISGPTAAVVGKLLRQLGESTQVMCVTHLPQVAGCGHQHYFVSKETDGAMTETHMQSLNKKTRLQELARLLGGSEVTRNTLANAKELLAA,not soluble
10,MLAVSSAIVSSAMYILSFPGQASGITKEQVTKHMKKESFKQADIYYTSKEKSLLPLTKETLEYAVSINQIMIGYSNQKPIDIIFFLMKNRWRLTPVYWMLEHHHHHH,not soluble
11,MLAVVDEEGTPVAGAMGFAQVVRDGLVVDYIGAVDILRELKATLEESLGAELLKAGVAYPPGTSPGDQKALHYIAEAAGFNVIAALDEPTAANNVLNIEDGAVIDIGGGTTGTAVIGQGQVVCVADEPTGGTHVSLVIAGAYRLPFAEAEKLKMDSCKHQELLPIIKPVIEKIAGIIRQHIQEHPVDQVYLVGGTSCFTGFETIVAAELQRPVIKPANPFLVTPLGIALAAAKTCSNP,not soluble
12,MLDEKASEEEIKAMFLMLSGGLKSQPGEDEKATAVAYLFSLDGLSRWAIKTATRDVMKGKAEGLSTTFMPASADLLLYCEKLEDDIRTTVKGIFTSLDRPEIKPKGEPISAEKWDKLMQMLEKPKIGLNPFQ,not soluble
13,MLDKLDAALRFQQEALNLRAQRQEVLAANIANADTPGYQARDIDFASELKKVMQRGRDATSVVALTMTSTQHIPAQALTPPTAELQYRIPDQPSLDGNTVDMDRERTQFADNSLQYQMSLSALSGQIKGMMNVLQSGN,not soluble
14,MLDLVNQLELDSQMKQFKLVSQMTRQDVIILDEPGYLPFSQKRGALLFHLMSQLHENTSVIITTNLEFSEWGTLFTEAKMTNALLDRLIHHCHMLETGNESYRFKHRNLEHHHHHH,not soluble
15,MLDTAAIIISQGKKIAYAYAEGVNDNMTQSHFHDFFELYYLLEGERMHMIEGEIYHLTANDFVLFPPHIMHHSYGEKDMPFKRIVLYFSPDLIANDTICQLLSEKELLFVNEGYIPNQILSLLLSLTHEIDVPGKYHDAYICNQLNGLLLNMLRLDFEAVKSIPKTRSAKAVDYIHNHYMEDISVNQLAEILYVSPYHLCHEFKNATGKTIIQYLNTTRILHAQRLMLETDYNITQISREVGFSNLTHFNRTFKKITGVAPREKKKLYQK,not soluble
16,MLDWEQIFATRSSRMKASEIRELLKLLEQPDIISFAGGIPDPALFPAEEFQQAYAEIFSGAQVNAALQYSVSEGYKPLREWLAGEMDKIGIDCTADNVFIVSGSQQGLDYLGKLFLSPKDTALVTWPTYLGALSAFNAYEPNYDQLNPGGNRTPEAYRETAAKLGGAVKFAYLSADFSNPTGETVDLAGREKVLALADELDIAVIEDAAYQSLRYDGEAVPPIMALDIARSGGIENTRTIYCGSFSKTLAPGLRVGYIVASAPVIRKLVLMKQAADLHSSTINQIAIERVAARGFDKQVAKIKAAYSARRDAMLSALEKYMPKTTSWTKPEGGMFIWVTLPEGMDGAALLAKSIATEKVAFVPGRAFFADGSGTNTLRISFSCANEAMIEEGMKRLGRLITTAQAETTEVLAAI,not soluble
17,MLEQLPYLALKTPPKTTALLKAECADFIVKEHLGYEMSGDGEFVALYVRKTDCNTLFVGEKLAKFAGVSERNMGYAGLKDRRAVTEQWFCLQMPGMETPDFSQFELDGVEILTVTRHNRKIRTGSLEGNYFDILLRGAEESDELKARLDFVANFGFPNYFTEQRFGRDGHNLTQALRWAQGEIKVKDRKKRSFYLSAARSEIFNLVVAARIEKSTINQVLPNDIVQLAGSHSWFKADEKEDLTALQVRLENQDILLTAPLIGEDILAASEIENEIVNQHSAFDPLMKQERMKAARRPLLMKAKGFSWAFEPEGLRLKFYLPAGSYATALVRELVNYTEE,soluble
18,MLESNENRIQIMSTIAKIYRAMSRELNRRLGELNLSYLDFLVLRATSDGPKTMAYLANRYFVTQSAITASVDKLEEMGLVVRVRDREDARKILIEITEKGLETFNKGIEIYKKLANEVTGDLSEDEVILVLDKISKILKRIEEISQ,soluble
